“Also recorded” adds a separate entry of the source.
Assays:
[1] = tested on: human vascular endothelial cell (HUVEC); experiment: HUVEC proliferation by 3H-TdR incorporation; type: cell-based; conditions: M200+1% BSA+OPN+antibody; 24 hours
Procedure: HUVEC cell proliferation was measured by the ^3H-TdR incorporation method to determine the protective effect of OPN on cell survival and the inhibitory effect of the anti-OPN antibodies on the OPN protection. Each well of a 96-well plate was inoculated with 2×10^4 HUVECs and cultured in a complete medium for 24 hours. The cells were then treated as following for 24 hours: […]
iv. M200+1% BSA+OPN+murine anti-OPN antibody 1A12 v. M200+1% , BSA+OPN+human-murine chimeric anti-OPN antibody c1A12 vi. M200+1% BSA+OPN+humanized anti-OPN antibody h1A12 vii. M200+1% BSA+OPN+irrelevant antibody
24 hours later, 1 uCi/well ^3H-thymidine was added and, after being incubated at 37° C. for 6 hours, washed once with PBS. The plate was treated with ice-cold 10% trichloroacetic acid/H2O at 4° C. for 10 min, and then washed for two times with, ice-cold ddH2O. Cytolysis was conducted by adding into each well 0.1 ml of 0.5 N NaOH, 0.5% SDS at room temperature for 10 min. After adding 0.2 ml of 0.5 N HCl and mixing, the cells were collected using a multiple cell collector.

human OPN protein = target: T1, human OPN protein (Homo sapiens, UniProt P10451); experiment: Western blot of 1A12 against human OPN protein; type: binding
T1 construct: made in house; host or cells: Pichia (yeast), culture supernatant
Procedure: 100 ug human OPN and an equal volume of Freund's adjuvant were emulsified, and injected intraperitoneally into BALB/C mice. Boost was given every two weeks at the same dose. […] The mouse spleen lymphocytes were fused with NS-1 cells using the classic PEG method. 96-well plate coated with 10 μg/ml human OPN was used for repeated screening by ELISA method to obtain hybridoma cell line 1A12 which was capable of stably expressing anti-human OPN antibody. The strain of 1A12 was amplified, and administrated to BALB/C mice in 5×10^6 cells/mouse (i.p.). The ascites was collected from the 10th day after the injection. The anti-human OPN monoclonal antibody was purified by affinity chromatography using protein A column.

MDA-MB-435s cells [2] = experiment: Spontaneous lung metastasis in nude mice (MDA-MB-435s); type: in vivo; conditions: 5 mg/kg, 2 times per week; histological sections
Procedure: (§1) The MDA-MB-435s cells were detached and re-suspended in serum-free DMEM to the concentration of 5×10^7 cells/ml. Each group of 10 female 4 to 6-week old nude mice were anaesthetized by injection of sodium pentobarbital (ip.). Under sterile condition, the skin was sterilized, and a small incision (0.5-mm) was made in the skin over the lateral thorax below the right limb. The mammary fat pads (mfp) were exposed and MDA-MB-435s cells (5×10^6 in 100 μl DMEM) were orthotopically injected into the mfps. The cut was then closed. The animals were randomly divided into four groups, and each accepted the treatment as specified below from the day after the tumor cell inoculation:
(§2) 1A12: 5 mg/kg, 2 times per week;
(§3) Control antibody: 5 mg/kg, 2 times per week.
(§4) The tumor formation in nude mice was observed once a week, the maxima of the diameter (length) and a perpendicular dimension of the tumor (width) were measured using a caliper, and the volume was calculated as follows: Volume=0.52×length×width^2. The changed tumor volumes were plotted versus the time into a tumor growth curve.
The mice were sacrificed by cervical dislocation at the end of the 10th week after inoculation. For each group, tumor tissues were isolated, fixed with 10% neutral formalin and embedded in paraffin, and the tumor tissue and lung tissue were stained with H & E for analysis. […]

MDA-MB-435s cells [3] = experiment: Clone formation on soft agar assay; type: cell-based; conditions: antibody 25 μg/ml every other day; 3 weeks
Procedure: The assay of clone formation on soft agar was conducted using a double-layer soft agar system. 2.5% melted agar was mixed the DMEM medium pre-warmed at 37° C. to formulate a 0.5% agar solution, which was then diluted with DMEM to a 0.3% agar solution. To each well of a 24-well plate was added 500 μl of a 0.5% agar solution, which was allowed to gel at 4° C., and then kept warm in an incubator at 37°C. The MDA-MB-435s cells were detached using 0.2% .EDTA and suspended in the 0.3% agar solution at the concentration of 5×10^3 cells/ml. 500 μl of the cell suspension was added each well and left to gel. From the second day, the cells were respectively treated with 1A12, c1A12, h1A12 or the irrelevant antibody (23C3D3) (25 μg/ml) every other day. After 3 weeks, the colony formation ability was evaluated by measuring the size of colonies containing more than 10 cells.

MDA-MB-435s cells [4] = experiment: Cell invasion assay (Transwell, Matrigel); type: cell-based; conditions: antibody 25 μg/ml; in the presence of hOPN; 24 hours
Procedure: The assay of cell invasion was carried out using the Transwell system (Corning) with the pore size of […]. The basement membrane of the upper chamber was coated with the artificial matrix gel (Matrigel). After being dried in a flame hood, the matrigel was hydrated with DMEM at 37° C. for 1 hour. MDA-MB-435s cells were detached using 0.2% EDTA and suspended in 0.25% BSA/DMEM at the concentration of 5×10^5 cells/ml. 100 μl of the obtained cell suspension as well as the following 25 μg/nil of antibodies were respectively added into the upper chamber of each well: 1A12 (murine anti-human OPN antibody), c1A12 (human-mouse chimeric antibody), h1A12 (humanized antibody), and 23C3 (irrelevant antibody control). To lower chamber, 0.25% of BSA/DMEM (with or without OPN) was added. The system was then incubated in incubator at 37° C. for 24 hours. After that, the cells remaining in the upper chamber was wiped away using a cotton swab, and the cells penetrate through the basement membrane into the lower chamber were washed with PBS, fixed with 1% formaldehyde, and then stained with 0.5% crystal violet. The cells were counted in the field at 200× magnification under a microscope.

MDA-MB-435s cells [5] = experiment: Primary breast tumor growth in nude mice (MDA-MB-435s orthotopic); type: in vivo; conditions: 5 mg/kg, 2 times per week; by the 10th week; P<0.05
Procedure: as §1, §2, §3, §4
The tumor size was plotted versus time into a tumor growth curve. […]

T1 sequence (P10451 17-314): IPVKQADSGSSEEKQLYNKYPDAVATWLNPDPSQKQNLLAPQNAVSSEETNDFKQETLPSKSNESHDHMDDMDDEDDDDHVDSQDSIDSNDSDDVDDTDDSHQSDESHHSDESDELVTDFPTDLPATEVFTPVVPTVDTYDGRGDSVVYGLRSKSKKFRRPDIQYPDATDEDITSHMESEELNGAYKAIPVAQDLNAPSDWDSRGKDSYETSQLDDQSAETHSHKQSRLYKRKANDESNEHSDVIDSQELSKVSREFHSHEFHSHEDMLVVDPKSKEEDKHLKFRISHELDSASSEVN

- binding to the human OPN protein (human OPN protein): specifically bound
B1: 1A12: murine anti-hOPN mAb; VH SEQ ID NO: 4, VL SEQ ID NO: 6; from hybridoma 1A12 (antibody, V domains shown)
VH: QVQLEQSGPELVKPGASVKMSCKSSGYTFTTYVMHWVKQKPGQGLEWIGYINPYNDGSKYNEKFKGKATLTSDKSSNTAYMELSSLTSEDSAVYYCASHYGGSPAYWGQGTLVTVSA
VL: DILMTQTPLSLPVSLGDQASISCRSSQSLVHSNGNTYLHWYLQKPGQSPKLLIYKVSNRFSGVPDRFSGSGSGTDFTLKISRVEAEDLGVYFCSQSTHVPWTFGGGTKLEIKR
modifications: amino acid sequence of the heavy chain variable region in 1A12; amino acid sequence of the light chain variable region in 1A12
notes: murine anti-hOPN mAb; from hybridoma 1A12
- 3H-TdR incorporation relative to the OPN group [1]: significantly lower
- number of the metastasis in lung (MDA-MB-435s cells [2]): reduced; also recorded: block tumor metastasis
- size of the metastasis in lung (MDA-MB-435s cells [2]): reduced
- inhibition of clone size formed by MDA-MB-435s cells on soft agar (MDA-MB-435s cells [3]): could inhibit the clone size
- blocking of invasion of the basement membrane by MDA-MB-435s (MDA-MB-435s cells [4]): effectively block
- tumor size versus irrelevant antibody treated group (MDA-MB-435s cells [5]): significantly smaller; also recorded: effectively inhibit tumor development
